Residue numbers refer to the chain shown, from its start.
How the values were obtained:
Details in all cases: protein: recombinant; tags: N-terminal His6 removed by thrombin (pET28a, NdeI/HindIII); label: 5'-biotin on strand 1
TBR1 T-box domain N374H = target: T1, TBR1 T-box domain N374H (human, UniProt Q16650 200-400, N374H); test: BLI; n=3; stated as no effect on affinity; Kd only plotted in figure; BLI (BLITZ, streptavidin sensor): kinetic buffer 20 mM HEPES pH 7.5, 100 mM NaCl, 25 C (stated for sensor hydration/equilibration); protein stock in 20 mM HEPES pH 7.5, 150 mM NaCl, 5 mM MgCl2
T1 sequence: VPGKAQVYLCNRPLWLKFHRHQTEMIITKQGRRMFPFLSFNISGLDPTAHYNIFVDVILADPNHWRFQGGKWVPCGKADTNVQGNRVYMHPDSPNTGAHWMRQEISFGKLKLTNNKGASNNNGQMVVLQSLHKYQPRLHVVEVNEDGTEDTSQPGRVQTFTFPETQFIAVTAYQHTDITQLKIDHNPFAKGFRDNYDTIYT

[1] = target: T2, TBR1 T-box domain WT (hTBR1DBD) (human, UniProt Q16650 200-400); test: BLI; protein 2.5-10 uM; Kd only plotted in figure; BLI (BLITZ, streptavidin sensor): kinetic buffer 20 mM HEPES pH 7.5, 100 mM NaCl, 25 C (stated for sensor hydration/equilibration); protein stock in 20 mM HEPES pH 7.5, 150 mM NaCl, 5 mM MgCl2
T2 sequence: T1 sequence with H175N

TBR1 T-box domain K228E = target: T3, TBR1 T-box domain K228E (human, UniProt Q16650 200-400, K228E); test: BLI; n=3; Kd only plotted in figure; BLI (BLITZ, streptavidin sensor): kinetic buffer 20 mM HEPES pH 7.5, 100 mM NaCl, 25 C (stated for sensor hydration/equilibration); protein stock in 20 mM HEPES pH 7.5, 150 mM NaCl, 5 mM MgCl2
T3 sequence: T1 sequence with K29E, H175N

B1: Grin2b-promoter probe (dsDNA)
DNA 1: TATATAGGTTGAGTGGCACGTTCCTGGGTGTGAGACC
DNA 2: GGTCTCACACCCAGGAACGTGCCACTCAA
With B1 the binding signal (TBR1 T-box domain N374H) was about 1 fold Kd vs WT, the binding result [1] was “binds” and the binding signal (TBR1 T-box domain K228E) was about 3 fold increase in Kd vs WT.

— article PMC6797848, “A TBR1-K228E Mutation Induces Tbr1 Upregulation, Altered Cortical Distribution of Interneurons, Increased Inhibitory Synaptic Transmission, and Autistic-Like Behavioral Deficits in Mice”
